For eleven proteins, Km and kcat/Km results are on record in patent EP3196312B1, “EFFICIENT CONVERSION OF METHYLGLYOXAL INTO HYDROXYACETONE USING NOVEL ENZYMES AND APPLI CATIONS THEREOF” (Metabolic Explorer, priority 2016, dated 2017).

Holding throughout (assay): Methylglyoxal reductase kinetic parameters of purified enzyme (NAD(P)H consumption at 340 nm)
Substrate in series [1]: CC(=O)C=O
The class given is biochemical, Escherichia coli. Conditions: other: substrate methylglyoxal 0.1-40 mM, pH 7.5. The protocol:
(§1) Except for the strain 18, the proteins were purified from the crude cell-extract by affinity on a Profinity column (BIORAD, Bio-Scale Mini Profinity exact cartridge 5 ml) according to the protocol recommended by the manufacturer. The crude extract was loaded on a 5 ml Profinity exact cartridge equilibrated with 100 mM potassium phosphate pH 7.6. The column was washed with 10 column volumes of the same buffer and incubated 30min with 100 mM potassium phosphate pH 7.6, 100 mM fluoride at room temperature. The protein was eluted from the column with 2 column volumes of 100 mM potassium phosphate pH 7.6. The tag remained tightly bound to the resin and the purified protein was released. The fractions containing the protein were pooled, concentrated and loaded on a gel filtration column (Superdex 200 10/300 GL column, GE Healthcare) equilibrated with different storage buffers (Table 3). Protein concentration was measured using the Bradford protein assay.
Methylglyoxal reductase activity (MGR) was determined by measuring the consumption of NAD(P)H at 340 nm on a spectrophotometer at 30°C (λ340 = 6290 M^-1 cm^-1). The reaction mixture (1mL) containing assay buffer and purified enzyme was incubated for 5 min at 30°C. Then, 0.1-40 mM methylglyoxal was added to start the reaction. One unit of enzyme activity was defined as the amount of enzyme catalyzing the decrease of 1µmol of NAD(P)H per min. Kinetic parameters were determined with Sigmaplot.

Substrate in series [2]: CC(=O)C=O
It counts as biochemical, Bacillus subtilis. Conditions: other: substrate methylglyoxal 0.1-40 mM, cofactor NADPH, 20mM Hepes (pH7.5) 0.1mM ZnSO4, 30°C, pH 7.5. The method, then: as §1
(§2) Methylglyoxal reductase activity (MGR) was determined by measuring the consumption of NAD(P)H at 340 nm on a spectrophotometer at 30°C (λ340 = 6290 M^-1 cm^-1). The reaction mixture (1mL) containing assay buffer and purified enzyme was incubated for 5 min at 30°C. Then, 0.1-40 mM methylglyoxal was added to start the reaction. […] Kinetic parameters were determined with Sigmaplot.

Substrate in series [3]: CC(=O)C=O
The class given is biochemical, Gluconobacter oxydans. Conditions: other: substrate methylglyoxal 0.1-40 mM, cofactor NADPH, 20mM Hepes (pH7.5), 30°C, pH 7.5. The method, then: as §1, §2

Substrate in series [4]: CC(=O)C=O
It counts as biochemical, Klebsiella pneumoniae. Particulars: other: substrate methylglyoxal 0.1-40 mM, cofactor NADH, 50 mM Imidazole (pH7), 30°C, pH 7.0. The protocol:
as §1, §2

Substrate in series [5]: CC(=O)C=O
The class given is biochemical, Hypocrea jecorina. Particulars: other: substrate methylglyoxal 0.1-40 mM, cofactor NADPH, 10mM sodium phosphate (pH 7), 30°C. The method, then:
as §1, §2

Substrate in series [6]: CC(=O)C=O
The class given is biochemical, Dickeya zeae. Conditions: other: substrate methylglyoxal 0.1-40 mM, cofactor NADPH, 20mM Hepes (pH7.5), 30°C, pH 7.5. The protocol:
as §1, §2

The mark [7] stands for this setting: cofactor NADH, 20mM Hepes (pH7.5) 0.1mM FeSO4, 30°C.
Setting [8] is: cofactor NADPH, 20mM Hepes (pH7.5), 30°C.

B1: Escherichia coli YiaY (Probable alcohol dehydrogenase, Uniprot P37686), SEQ ID NO: 111 (Escherichia coli K-12) (protein)
chain: MAASTFFIPSVNVIGADSLTDAMNMMADYGFTRTLIVTDNMLTKLGMAGDVQKALEERNIFSVIYDGTQPNPTTENVAAGLKLLKENNCDSVISLGGGSPHDCAKGIALVAANGGDIRDYEGVDRSAKPQLPMIAINTTAGTASEMTRFCIITDEARHIKMAIVDKHVTPLLSVNDSSLMIGMPKSLTAATGMDALTHAIEAYVSIAATPITDACALKAVTMIAENLPLAVEDGSNAKAREAMAYAQFLAGMAFNNASLGYVHAMAHQLGGFYNLPHGVCNAVLLPHVQVFNSKVAAARLRDCAAAMGVNVTGKNDAEGAEACINAIRELAKKVDIPAGLRDLNVKEEDFAVLATNALKDACGFTNPIQATHEEIVAIYRAAM
Turning to B1, in series [1] (setting [7]), the Km is 2840 µM and the kcat/Km was determined as 340 M⁻¹ s⁻¹.

B2: Escherichia coli YafB (2,5-diketo-D-gluconic acid reductase B, Uniprot P30863), SEQ ID NO: 99 (Escherichia coli K-12) (protein)
chain: MAIPAFGLGTFRLKDDVVISSVITALELGYRAIDTAQIYDNEAAVGQAIAESGVPRHELYITTKIWIENLSKDKLIPSLKESLQKLRTDYVDLTLIHWPSPNDEVSVEEFMQALLEAKKQGLTREIGISNFTIPLMEKAIAAVGAENIATNQIELSPYLQNRKVVAWAKQHGIHITSYMTLAYGKALKDEVIARIAAKHNATPAQVILAWAMGEGYSVIPSSTKRKNLESNLKAQNLQLDAEDKKAIAALDCNDRLVSPEGLAPEWD
Consider B2, for which, in series [1] (setting [8]), the Km was 8200 µM and the catalytic efficiency (kcat/Km) turned out to be 2060 M⁻¹ s⁻¹.

B3: Bacillus subtilis YhdN (general stress protein 69, Uniprot P80874), SEQ ID NO: 3 (Bacillus subtilis subsp. subtilis str. 168) (protein)
chain: MEYTSIADTGIEASRIGLGTWAIGGTMWGGTDEKTSIETIRAALDQGITLIDTAPAYGFGQSEEIVGKAIKEYGKRDQVILATKTALDWKNNQLFRHANRARIVEEVENSLKRLQTDYIDLYQVHWPDPLVPIEETAEVMKELYDAGKIRAIGVSNFSIEQMDTFRAVAPLHTIQPPYNLFEREMEESVLPYAKDNKITTLLYGSLCRGLLTGKMTEEYTFEGDDLRNHDPKFQKPRFKEYLSAVNQLDKLAKTRYGKSVIHLAVRWILDQPGADIALWGARKPGQLEALSEITGWTLNSEDQKDINTILENTISDPVGPEFMAPPTREEI
As for B3, in series [2], the Km was 640 µM and the kcat/Km is 5920 M⁻¹ s⁻¹.

B4: Gluconobacter oxydans Gld (putative oxidoreductase, Uniprot Q5FQJ0), SEQ ID NO: 5 (Gluconobacter oxydans 621H) (protein)
chain: MASDTIRIPGIDTPLSRVALGTWAIGGWMWGGPDDDNGVRTIHAALDEGINLIDTAPVYGFGHSEEIVGRALAEKPNKAHVATKLGLHWVGEDEKNMKVFRDSRPARIRKEVEDSLRRLRVETIDLEQIHWPDDKTPIDESARELQKLHQDGKIRALGVSNFSPEQMDIFREVAPLATIQPPLNLFERTIEKDILPYAEKHNAVVLAYGALCRGLLTGKMNRDTTFPKDDLRSNDPKFQKPNFEKYLAAMDEFEKLAEKRGKSVMAFAVRWVLDQGPVIALWGARKPGQVSGVKDVFGWSLTDEEKKAVDDILARHVPNPIDPTFMAPPARD
With B4, in series [3], the Km stood at 1100 µM and the kcat/Km came out at 8740 M⁻¹ s⁻¹.

B5: Escherichia coli YdhF (Oxidoreductase YdhF, Uniprot P76187), SEQ ID NO: 105 (Escherichia coli K-12) (protein)
chain: MVQRITIAPQGPEFSRFVMGYWRLMDWNMSARQLVSFIEEHLDLGVTTVDHADIYGGYQCEAAFGEALKLAPHLRERMEIVSKCGIATTAREENVIGHYITDRDHIIKSAEQSLINLATDHLDLLLIHRPDPLMDADEVADAFKHLHQSGKVRHFGVSNFTPAQFALLQSRLPFTLATNQVEISPVHQPLLLDGTLDQLQQLRVRPMAWSCLGGGRLFNDDYFQPLRDELAVVAEELNAGSIEQVVYAWVLRLPSQPLPIIGSGKIERVRAAVEAETLKMTRQQWFRIRKAALGYDVP
For B5, in series [1] (setting [8]), the Km was 21800 µM and the kcat/Km was 350 M⁻¹ s⁻¹.

B6: Klebsiella pneumoniae BudC (Diacetyl reductase [(S)-acetoin forming], Uniprot Q48436), SEQ ID NO: 113 (Klebsiella pneumoniae) (protein)
chain: MKKVALVTGAGQGIGKAIALRLVKDGFAVAIADYNDATAKAVASEINQAGGRAMAVKVDVSDRDQVFAAVEQARKTLGGFDVIVNNAGVAPSTPIESITPEIVDKVYNINVKGVIWGIQAAVEAFKKEGHGGKIINACSQAGHVGNPELAVYSSSKFAVRGLTQTAARDLAPLGITVNGYCPGIVKTPMWAEIDRQVSEAAGKPLGYGTAEFAKRITLGRLSEPEDVAACVSYLASPDSDYMTGQSLLIDGGMVFN
For the protein B6, in series [4], the Km stood at 74800 µM and the kcat/Km is 4200 M⁻¹ s⁻¹.

B7: Escherichia coli YahK (aldehyde reductase, Uniprot P75691), SEQ ID NO: 1 (Escherichia coli K-12) (protein)
chain: MKIKAVGAYSAKQPLEPMDITRREPGPNDVKIEIAYCGVCHSDLHQVRSEWAGTVYPCVPGHEIVGRVVAVGDQVEKYAPGDLVGVGCIVDSCKHCEECEDGLENYCDHMTGTYNSPTPDEPGHTLGGYSQQIVVHERYVLRIRHPQEQLAAVAPLLCAGITTYSPLRHWQAGPGKKVGVVGIGGLGHMGIKLAHAMGAHVVAFTTSEAKREAAKALGADEVVNSRNADEMAAHLKSFDFILNTVAAPHNLDDFTTLLKRDGTMTLVGAPATPHKSPEVFNLIMKRRAIAGSMIGGIPETQEMLDFCAEHGIVADIEMIRADQINEAYERMLRGDVKYRFVIDNRTLTD
Turning to B7, in series [1] (setting [8]), the Km stood at 1410 µM and the kcat/Km amounted to 8300 M⁻¹ s⁻¹.

B8: Escherichia coli YqhD (alcohol dehydrogenase, Uniprot Q46856), wild type, SEQ ID NO: 7 (Escherichia coli K-12) (protein)
chain: MNNFNLHTPTRILFGKGAIAGLREQIPHDARVLITYGGGSVKKTGVLDQVLDALKGMDVLEFGGIEPNPAYETLMNAVKLVREQKVTFLLAVGGGSVLDGTKFIAAAANYPENIDPWHILQTGGKEIKSAIPMGCVLTLPATGSESNAGAVISRKTTGDKQAFHSAHVQPVFAVLDPVYTYTLPPRQVANGVVDAFVHTVEQYVTKPVDAKIQDRFAEGILLTLIEDGPKALKEPENYDVRANVMWAATQALNGLIGAGVPQDWATHMLGHELTAMHGLDHAQTLAIVLPALWNEKRDTKRAKLLQYAERVWNITEGSDDERIDAAIAATRNFFEQLGVPTHLSDYGLDGSSIPALLKKLEEHGMTQLGENHDITLDVSRRIYEAAR
Consider B8, for which, in series [1] (cofactor NADPH, 20mM Hepes (pH7.5) 0.1mM ZnSO4, 30°C), the Km stood at 2090 µM.

B9: Hypocrea jecorina Gld2 (Glycerol 2-dehydrogenase (NADP(+)), Uniprot Q0GYU4), SEQ ID NO: 109 (Trichoderma reesei) (protein)
chain: MASKTYTLNTGAKIPAVGFGTFANEGAKGETYAAVTKALDVGYRHLDCAWFYHNEDEVGDAVRDFLARRPDVKREDLFICTKVWNHLHEPEDVKWSAKNSCENLKVDYIDLFLVHWPIAAEKNSDRSVKLGPDGKYVINQALTENPEPTWRAMEELVESGLVKAIGVSNWTIPGLKKLLQIAKIKPAVNQIEIHPFLPNEELVAFCFENGILPEAYSPLGSQNQVPSTGERVRDNPTLKAVAERSGYSLAQILLAWGLKRGYVVLPKSSTPSRIESNFNIPELSDEDFEAIQQVAKGRHTRFVNMKDTFGYNVWPEEE
Consider B9, for which, in series [5], the Km worked out at 7700 µM and the kcat/Km amounted to 11100 M⁻¹ s⁻¹.

B10: Escherichia coli YeaE (Uncharacterized protein YeaE, Uniprot P76234), SEQ ID NO: 107 (Escherichia coli K-12) (protein)
chain: MQQKMIQFSGDVSLPAVGQGTWYMGEDASQRKTEVAALRAGIELGLTLIDTAEMYADGGAEKVVGEALTGLREKVFLVSKVYPWNAGGQKAINACEASLRRLNTDYLDLYLLHWSGSFAFEETVAAMEKLIAQGKIRRWGVSNLDYADMQELWQLPGGNQCATNQVLYHLGSRGIEYDLLPWCQQQQMPVMAYSPLAQAGRLRNGLLKNAVVNEIAHAHNISAAQVLLAWVISHQGVMAIPKAATIAHVQQNAAVLEVELSSAELAMLDKAYPAPKGKTALDMV
For the protein B10, in series [1] (setting [8]), the Km worked out at 1590 µM and the kcat/Km turned out to be 910 M⁻¹ s⁻¹.

B11: Dickeya zeae Adh3.2 (Group III alcohol dehydrogenase, Uniprot R4Z7U3), SEQ ID NO: 103 (Dickeya zeae) (protein)
chain: MQNFTLHTPTKILFGEGQIAALADQIPADARILITYGGGSIKKNGVFDQVINALKGRNVVEFSGIEPNPTYETLMKAVEIVRKENIDFLLAVGGGSVADGTKFIAAAVNYKAAEDPWHILQTWGAHVESAIPLGVVLTLPATGSESNSGAVITRKSTGDKQAFMNPLVCPRFAVLDPVVTYTLPERQIANGVVDAFVHTVEQYLTYPVDAKVQDRFAEGLLLTLIEEGPRALKEQHNYNVRANVMWSATMALNGLIGAGVPQDWSTHMLGHEITAMHGLDHAQTLAIVLPAMLNERRVQKREKLLQYAERVWNLRDGSDDQRIDGAIAATRAFFEQMGVPTRLSDYQLDGSSIPALVAKLEEHGMTALGENKDITLDISKRVYEAAR
As to B11, in series [6], the Km is 6700 µM and the catalytic efficiency (kcat/Km) is 170 M⁻¹ s⁻¹.

As usually defined, the Km is the concentration of substrate that gives half-maximal velocity. Usually kcat/Km stands for the turnover number divided by the Michaelis constant.
